# Test results published in patent US20200140551A1 (GlaxoSmithKline, published 2020).
# T1: cynomolgus ICOS (cynomolgus, UniProt A0A2K5TQR6 21-140)
# T1 construct: also called cyno ICOS; not shown: Carrier of the soluble construct, if any
# T1 sequence: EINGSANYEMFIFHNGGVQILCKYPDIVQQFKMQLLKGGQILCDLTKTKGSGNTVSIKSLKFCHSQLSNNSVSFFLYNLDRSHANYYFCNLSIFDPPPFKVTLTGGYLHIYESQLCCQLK
# T2: human ICOS (human, UniProt Q9Y6W8 21-140, limits assumed)
# T2 sequence: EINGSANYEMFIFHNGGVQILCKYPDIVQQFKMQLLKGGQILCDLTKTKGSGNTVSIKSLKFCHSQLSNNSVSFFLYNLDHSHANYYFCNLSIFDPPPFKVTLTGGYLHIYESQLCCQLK
# Legend:
# [1] = target: T1, cynomolgus ICOS; experiment: Biacore (SPR), cyno ICOS; format not described
# [2] = target: T2, human ICOS; experiment: Biacore (SPR), human ICOS; format not described
Kd [1] [nM],Kd [2] [nM],Binder
23,31,"murine anti-human ICOS mAb clone 88.2 (antibody, V domains shown) VH: QVQLQQPGAELVRPGASVKLSCKASGYSFTSYWINWVKQRPGQGLEWIGNIYPSDSYTNYNQMFKDKATLTVDKSSNTAYMQLTSPTSEDSAVYYCTRWNLSYYFDNNYYLDYWGQGTTLTVSS VL: QAVVTQESALTTSPGETVTLTCRSSTGAVTTSNYANWVQEKPDHLFTGLIGGTNNRAPGVPARFSGSLIGDKAALTITGAQTEDEAIYFCALWYNNHLVFGGGTKLTVL"
4.46,5.7,"murine anti-human ICOS mAb clone 422.2 (antibody, V domains shown, also called hybridoma clone 422.2) VH: QVQLQQSGPELVRPGESVKISCMGSGYTFTDYAMHWVKQSHAKSLEWIGLISIYSDHTNYNQKFQGKATMTVDKSSSTAYMELARLTSEDSAIYYCGRNNYGNYGWYFDVWGAGTTVTVSS VL: ENVLTQSPAIMSASPGEKVTMTCSASSSVSYMHWYQQKSITSPKLWIYDTSKLASGVPGRFSGSGSGNSYSLTISSMEAEDVATYYCFQGSGYPYTFGGGTKLEIKR"
